For the data set, the target named is Nb55 (Lama glama (llama immune VHH library), UniProt PDB:9GXH_1). Nature of the data set: ITC. On the technique in general: In ITC the heat of successive injections is recorded.

In the case of TGAGGGTGGGTAGGGTGGGTAA (structured_DNA) [c-Myc], the binding result was “no binding”. The value for GGGCGCGGGAGGAATTGGGCGGG (structured_DNA) [Bcl2] was “no binding”; that for GACCCCGCCCCCGGCCCGCCCCCG (structured_DNA) [VEGF] was “no binding”. Take GAAAAACCCCCTTTTTC (structured_DNA) [B-DNA hairpin]: the binding result is “no binding”. Turning to GGTGGGTGTGGTTGG (structured_DNA) [TBA T4G], the binding result is reported as “no binding”.
